Test results as given in US20180312587A1 (ADURO BIOTECH HOLDINGS EUROPE B V, published 2018).
Read-outs that look alike come from different tables or passages of the source.

Assays:
human SIRPα variant 1 [1] = target: T1, human SIRPα variant 1 (human, UniProt P78324 31-504); assay: CELISA, CHO-K1 transfectants
T1 construct: full length ORF on transfected CHO-K1 or HEK293 cells; entry includes the signal peptide; also called hSIRPαV1; SIRPαV1
Experimental: (§1) Reactivity was confirmed using CHO-K1 cells (ATCC CCL-61) expressing a cDNA encoding the full length open reading frame of hSIRPαV1, hSIRPαV1(P74A), hSIRPαV2, and hSIRPβ1 subcloned into the pCI-neo vector (Promega, Madison, Wis.). CHO-K1.hSIRPαV1, CHO-K1.hSIRPαV1(P74A), CHO-K1.hSIRPαV2, and CHO-K1.hSIRPβ1 cells were seeded in culture medium (DMEM-F12 (Gibco) supplemented with 5% New Born Calf Serum (BioWest) and Pen/Strep (Gibco)) in 96-well flat-bottom tissue culture plates and incubated at 37° C., 5% CO₂ and 95% humidity for 24 hours. Subsequently, culture medium was removed and cells were incubated for 1 hour at 37° C., 5% CO₂ and 95% humidity with purified hSIRPα antibodies (used at 10 μg/mL and dilutions thereof). Next, cells were washed with PBS-T and incubated for 1 hour at 37° C., 5% CO₂ and 95% humidity with goat-anti-mouse IgG-HRP (Southern Biotech). Subsequently, cells were washed three times with PBS-T and immunoreactivity against hSIRPαV1, hSIRPαV1(P74A), hSIRPαV2, and hSIRPβ1 was visualized with TMB Stabilized Chromogen (Invitrogen). Reactions were stopped with 0.5 M H₂SO₄ and absorbances were read at 450 and 610 nm.

human SIRPβ1 [2] = target: T2, human SIRPβ1 (human, UniProt O00241 30-398); assay: CELISA, CHO-K1 transfectants
T2 construct: also called hSIRPβ1
T2 sequence (O00241 30-398 limits assumed): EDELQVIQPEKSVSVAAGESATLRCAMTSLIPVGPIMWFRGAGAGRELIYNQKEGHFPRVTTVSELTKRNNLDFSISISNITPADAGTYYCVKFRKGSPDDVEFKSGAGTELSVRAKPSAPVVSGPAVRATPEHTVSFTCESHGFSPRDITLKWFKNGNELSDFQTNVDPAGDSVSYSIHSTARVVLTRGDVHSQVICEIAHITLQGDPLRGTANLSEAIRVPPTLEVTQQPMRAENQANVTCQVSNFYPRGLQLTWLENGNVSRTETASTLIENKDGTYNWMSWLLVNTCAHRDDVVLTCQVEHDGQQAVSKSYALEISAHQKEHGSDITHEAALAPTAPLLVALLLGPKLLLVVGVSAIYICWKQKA
Experimental: as §1

hSIRPαV1(P74A) [3] = target: T3, hSIRPαV1(P74A) (human, UniProt P78324 31-504); assay: CELISA, CHO-K1 transfectants
T3 construct: also called P74A variant of hSIRPαV1
T3 sequence (P78324 31-504 P74A limits assumed): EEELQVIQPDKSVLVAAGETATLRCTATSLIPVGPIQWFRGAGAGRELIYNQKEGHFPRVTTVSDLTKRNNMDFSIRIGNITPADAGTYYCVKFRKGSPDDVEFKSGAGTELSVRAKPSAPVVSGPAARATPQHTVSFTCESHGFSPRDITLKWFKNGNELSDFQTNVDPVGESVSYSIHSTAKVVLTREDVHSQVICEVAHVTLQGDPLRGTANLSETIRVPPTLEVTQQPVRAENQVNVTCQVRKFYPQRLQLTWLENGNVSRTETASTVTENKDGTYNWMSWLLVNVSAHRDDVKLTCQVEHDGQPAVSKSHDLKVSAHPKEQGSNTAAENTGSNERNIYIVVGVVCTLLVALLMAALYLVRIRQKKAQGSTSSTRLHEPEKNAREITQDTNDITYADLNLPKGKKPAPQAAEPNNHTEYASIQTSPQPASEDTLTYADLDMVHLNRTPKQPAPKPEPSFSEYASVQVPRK
Experimental: as §1

human SIRPα variant 1 [4] = target: T1, human SIRPα variant 1; assay: CELISA, CHO-K1 transfectants; remark: listed apart in the source
Experimental: (§2) The specificity of monoclonal anti-hSIRPα antibodies (e.g., including the hSIRPα antibodies known in the art, KWAR23 ([…]. Patent CA2939293 A1), 18D5 (Patent WO2017/178653 A2), and various commercially available hSIRPα antibodies) for binding to hSIRPαV1, hSIRPαV1(P74A), and hSIRPβ1 was evaluated by CELISA. Reactivity was confirmed using CHO-K1 cells (ATCC CCL-61) expressing a cDNA encoding the full length open reading frame of hSIRPαV1, hSIRPαV1(P74A), and hSIRPβ1 subcloned into the pCI-neo vector (Promega, Madison, Wis.). CHO-K1.hSIRPαV1, CHO-K1.hSIRPαV1(P74A), and CHO-K1.hSIRPβ1 cells were seeded in culture medium (DMEM-F12 (Gibco) supplemented with 5% New Born Calf Serum (BioWest) and Pen/Strep (Gibco)) in 96-well flat-bottom tissue culture plates and incubated at 37° C., 5% CO₂ and 95% humidity for 24 hours. Subsequently, culture medium was removed and cells were incubated for 1 hour at 37° C., 5% CO₂ and 95% humidity with purified hSIRPα antibodies (used at 10 μg/ml and dilutions thereof). Next, cells were washed with PBS-T and incubated for 1 hour at 37° C., 5% CO₂ and 95% humidity with either goat-anti-mouse IgG-HRP (Southern Biotech), goat-anti-human IgG-HRP (Jackson Immuno Research), or goat-anti-rabbit IgG-HRP (Southern Biotech). Subsequently, cells were washed three times with PBS-T and immunoreactivity against hSIRPαV1, hSIRPαV1(P74A), and hSIRPβ1 was visualized with TMB Stabilized Chromogen (Invitrogen). Reactions were stopped with 0.5 M H₂SO₄ and absorbances were read at 450 and 610 nm.

human SIRPβ1 [5] = target: T2, human SIRPβ1; assay: CELISA, CHO-K1 transfectants; remark: listed apart in the source
Experimental: as §2

hSIRPαV1(P74A) [6] = target: T3, hSIRPαV1(P74A); assay: CELISA, CHO-K1 transfectants; remark: listed apart in the source
Experimental: as §2

human SIRPα variant 2 = target: T4, human SIRPα variant 2 (human, UniProt P78324 31-504); assay: CELISA, CHO-K1 transfectants; nd = not detected
T4 construct: full length ORF on transfected CHO-K1 cells; also called hSIRPαV2; SIRPαV2
T4 sequence (P78324 other isoform, or with tags, fused parts or gaps mutant limits assumed): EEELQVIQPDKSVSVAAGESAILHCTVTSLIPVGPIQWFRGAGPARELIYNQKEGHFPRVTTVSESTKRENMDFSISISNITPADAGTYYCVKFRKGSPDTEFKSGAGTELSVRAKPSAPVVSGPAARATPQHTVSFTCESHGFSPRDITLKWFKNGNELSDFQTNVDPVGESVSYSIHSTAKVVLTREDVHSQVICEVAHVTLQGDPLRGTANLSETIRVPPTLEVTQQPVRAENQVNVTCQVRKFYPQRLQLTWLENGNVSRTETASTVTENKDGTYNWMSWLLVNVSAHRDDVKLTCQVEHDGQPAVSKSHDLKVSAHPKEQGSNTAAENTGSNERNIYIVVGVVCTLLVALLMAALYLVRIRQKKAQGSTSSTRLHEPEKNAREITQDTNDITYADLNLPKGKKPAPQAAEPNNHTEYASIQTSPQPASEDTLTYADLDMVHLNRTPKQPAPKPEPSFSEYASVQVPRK
Experimental: as §1

human SIRPγ = target: T5, human SIRPγ (human, UniProt Q9P1W8 29-387); assay: flow cytometry, Jurkat E6.1 cells; nd = not detected
T5 construct: on transfected CHO-K1 cells; also called hSIRPγ
T5 sequence (Q9P1W8 29-387 limits assumed): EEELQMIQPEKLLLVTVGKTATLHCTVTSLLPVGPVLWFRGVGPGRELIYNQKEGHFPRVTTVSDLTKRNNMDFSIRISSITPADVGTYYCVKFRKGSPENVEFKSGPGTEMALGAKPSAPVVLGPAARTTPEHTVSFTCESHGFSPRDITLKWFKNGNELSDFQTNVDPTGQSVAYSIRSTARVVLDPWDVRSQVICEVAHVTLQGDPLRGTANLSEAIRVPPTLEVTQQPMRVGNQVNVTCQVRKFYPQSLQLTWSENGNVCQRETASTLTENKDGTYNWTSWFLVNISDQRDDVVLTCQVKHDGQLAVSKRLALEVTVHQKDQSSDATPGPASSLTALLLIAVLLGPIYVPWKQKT
Experimental: Binding to hSIRPγ was assessed by flow cytometry using the Jurkat E6.1 T cell leukemia cell line (ECACC 88042803). Jurkat cells were seeded in 96-well round bottomed tissue culture plates and incubated for 40 minutes with the anti-hSIRPα antibodies (20 μg/mL and dilutions thereof) in PBS/1% BSA at 4° C. […] After this labeling procedure, cells were washed two times, resuspended in PBS/1% BSA, containing 0.1 μg/mL DAPI (BioLegend), and analysed by flow cytometry on the FACSVerse (BD Biosciences). Data were processed and analysed with FlowJo V10 software (FlowJo, LLC).

human SIRPα variant 1 [7] = target: T1, human SIRPα variant 1; assay: flow cytometry, blockade of DyLight488-hCD47/Fc binding to U-937 cells
Experimental: hCD47 blockade for the KWAR23, clone 18D5, and hSIRPα.40A antibodies was assessed by flow cytometry. For this purpose, THP-1 (ATCC TIB-202) and U-937 (ATCC CRL-1593.2) monocyte cell lines were used as the source of hSIRPα in the assay. THP-1 and U-937 cells were seeded in 96-well round bottomed tissue culture plates and incubated for 45 minutes with FcR Blocking Reagent (Miltenyi Biotec) and indicated anti-hSIRPα antibodies (20 μg/mL and dilutions thereof) in PBS/1% BSA at 4° C. […] After this labeling procedure, cells were washed two times, resuspended in PBS/1% BSA containing 0.1 μg/mL DAPI (BioLegend), and analysed by flow cytometry on the FACSVerse (BD Biosciences). Data were processed and analysed with FlowJo V10 software (FlowJo, LLC) and plotted using GraphPad Prism 6 (GraphPad Software, Inc.). Binding of recombinant hCD47 fused to an Fc domain of human IgG1 was monitored in the presence of increasing amounts of the anti-hSIRPα antibodies. […] IC50 values represent the concentration at which half of the inhibition is observed.

T1 sequence (P78324 31-504 limits assumed, change not shown): as the sequence (P78324 31-504 P74A limits assumed) above, with A44P counted along it

EC50 (human SIRPα variant 1 [1]): 134 pM
EC50 (human SIRPβ1 [2]): 55 pM
EC50 (hSIRPαV1(P74A) [3]): 55 pM
EC50 (human SIRPα variant 1 [4]): 128 pM
EC50 (human SIRPβ1 [5]): 64 pM
EC50 (hSIRPαV1(P74A) [6]): 73 pM
IC50 (human SIRPα variant 1 [7]): 1520 pM
B1: 18D5 (antibody, V domains shown)
VH: QVQLQQPGAELVRPGSSVKLSCKASGYTFTSYWVHWVKQRPIQGLEWIGNIDPSDSDTHYNQKFKDKASLTVDKSSSTAYMQLSSLTFEDSAVYYCVRGGTGTMAWFAYWGQGTLVTVSA
VL: DVVMTQTPLSLPVSLGDQASISCRSSQSLVHSYGNTYLYWYLQKPGQSPKLLIYRVSNRFSGVPDRFSGSGSGTDFTLKISRVEAEDLGVYFCFQGTHVPYTFGSGTKLEIK
notes: from WO2017/178653; also called clone 18D5
binding result (human SIRPα variant 2): no binding (tested: 10 µg/mL and dilutions thereof)
binding result (human SIRPγ): no binding (tested: 20 µg/mL and dilutions thereof)
